Results from the supplement of paper PMC11246515.
± gives the standard deviation of the averaged measurements.

Experiment: total protein half-life in vivo (active degradation + dilution); higher = more stable protein
[1] = E. coli NCM3722 delta-clpP, growth: N-lim chemostat, doubling time 6 h
[2] = E. coli NCM3722 delta-hslV, growth: N-lim chemostat, doubling time 6 h
[3] = E. coli NCM3722 delta-smpB, growth: N-lim chemostat, doubling time 6 h
[4] = wild type E. coli NCM3722, growth: C-lim chemostat, doubling time 3 h
[5] = wild type E. coli NCM3722, growth: C-lim chemostat, doubling time 6 h
[6] = wild type E. coli NCM3722, growth: C-lim chemostat, doubling time 12 h
[7] = wild type E. coli NCM3722, growth: N-lim chemostat, doubling time 6 h
[8] = wild type E. coli NCM3722, growth: N-lim chemostat, doubling time 12 h
[9] = wild type E. coli NCM3722, growth: P-lim chemostat, doubling time 6 h
[10] = wild type E. coli NCM3722, growth: P-lim chemostat, doubling time 12 h
[11] = E. coli NCM3722 delta-clpP delta-lon delta-hslV, growth: N-lim chemostat, doubling time 6 h
[12] = E. coli NCM3722 delta-lon, growth: N-lim chemostat, doubling time 6 h

Sequence: MNIIEANVATPDARVAITIARFNNFINDSLLEGAIDALKRIGQVKDENITVVWVPGAYELPLAAGALAKTGKYDAVIALGTVIRGGTAHFEYVAGGASNGLAHVAQDSEIPVAFGVLTTESIEQAIERAGTKAGNKGAEAALTALEMINVLKAIKA
- total protein half-life in vivo [1]: 6.4 ± 0.16 h
- total protein half-life in vivo [2]: 6.59 ± 0.59 h
- total protein half-life in vivo [3]: 5.79 ± 0.1 h
- total protein half-life in vivo [4]: 3.16 ± 0.054 h
- total protein half-life in vivo [5]: 6.41 ± 0.27 h
- total protein half-life in vivo [6]: 13.7 ± 0.27 h
- total protein half-life in vivo [7]: 6.17 ± 0.85 h
- total protein half-life in vivo [8]: 12.8 ± 0.8 h
- total protein half-life in vivo [9]: 5.73 ± 0.29 h
- total protein half-life in vivo [10]: 13.6 ± 0.3 h

Sequence: MNILLAFKAEPDAGMLAEKEWQAAAQGKSGPDISLLRSLLGADEQAAAALLLAQRKNGTPMSLTALSMGDERALHWLRYLMALGFEEAVLLETAADLRFAPEFVARHIAEWQHQNPLDLIITGCQSSEGQNGQTPFLLAEMLGWPCFTQVERFTLDALFITLEQRTEHGLRCCRVRLPAVIAVRQCGEVALPVPGMRQRMAAGKAEIIRKTVAAEMPAMQCLQLARAEQRRGATLIDGQTVAEKAQKLWQDYLRQRMQP
- total protein half-life in vivo [11]: 5.73 ± 0.78 h

Sequence: MNIQALLSEKVRQAMIAAGAPADCEPQVRQSAKVQFGDYQANGMMAVAKKLGMAPRQLAEQVLTHLDLNGIASKVEIAGPGFINIFLDPAFLAEHVQQALASDRLGVATPEKQTIVVDYSAPNVAKEMHVGHLRSTIIGDAAVRTLEFLGHKVIRANHVGDWGTQFGMLIAWLEKQQQENAGEMELADLEGFYRDAKKHYDEDEEFAERARNYVVKLQSGDEYFREMWRKLVDITMTQNQITYDRLNVTLTRDDVMGESLYNPMLPGIVADLKAKGLAVESEGATVVFLDEFKNKEGEPMGVIIQKKDGGYLYTTTDIACAKYRYETLHADRVLYYIDSRQHQHLMQAWAIVRKAGYVPESVPLEHHMFGMMLGKDGKPFKTRAGGTVKLADLLDEALERARRLVAEKNPDMPADELEKLANAVGIGAVKYADLSKNRTTDYIFDWDNMLAFEGNTAPYMQYAYTRVLSVFRKAEIDEEQLAAAPVIIREDREAQLAARLLQFEETLTVVAREGTPHVMCAYLYDLAGLFSGFYEHCPILSAENEEVRNSRLKLAQLTAKTLKLGLDTLGIETVERM
- total protein half-life in vivo [11]: 5.58 ± 1.2 h
- total protein half-life in vivo [1]: 4.719 ± 0.0071 h
- total protein half-life in vivo [2]: 4.73 ± 0.089 h
- total protein half-life in vivo [12]: 5.12 ± 0.092 h
- total protein half-life in vivo [3]: 4.66 ± 0.21 h
- total protein half-life in vivo [4]: 3.13 ± 0.036 h
- total protein half-life in vivo [5]: 5.89 ± 0.47 h
- total protein half-life in vivo [6]: 10.2 ± 0.2 h
- total protein half-life in vivo [7]: 4.48 ± 0.06 h
- total protein half-life in vivo [8]: 7.82 ± 0.086 h
- total protein half-life in vivo [9]: 6.03 ± 0.33 h
- total protein half-life in vivo [10]: 12 ± 0.36 h

Sequence: MNIQCKRVYDPAEQSDGYRILVDRLWPRGIKKTDLALDEWDKEITPSTELRKAFHGEVVDYATFREQYLAELAQHEQEGKRLADIAKKQPLTLLYSAKNTTQNHALVLADWLRSL
- total protein half-life in vivo [11]: 6.74 ± 1.5 h
- total protein half-life in vivo [1]: 5.27 h
- total protein half-life in vivo [2]: 3.16 ± 0.34 h
- total protein half-life in vivo [12]: 4.88 ± 0.48 h
- total protein half-life in vivo [3]: 3.51 ± 0.47 h
- total protein half-life in vivo [4]: 2.37 ± 0.59 h
- total protein half-life in vivo [5]: 4.57 h
- total protein half-life in vivo [6]: 4.54 ± 0.79 h
- total protein half-life in vivo [7]: 3.27 h
- total protein half-life in vivo [8]: 4.71 h
- total protein half-life in vivo [9]: 3.11 h
- total protein half-life in vivo [10]: 5.24 ± 1.4 h

Sequence: MNIRPLHDRVIVKRKEVETKSAGGIVLTGSAAAKSTRGEVLAVGNGRILENGEVKPLDVKVGDIVIFNDGYGVKSEKIDNEEVLIMSESDILAIVEA [P0A6F9]
- total protein half-life in vivo [11]: 5.5416 ± 0.005 h
- total protein half-life in vivo [1]: 5.34 ± 0.43 h
- total protein half-life in vivo [2]: 5.26 ± 0.4 h
- total protein half-life in vivo [12]: 6.18 ± 0.9 h
- total protein half-life in vivo [3]: 5.092 ± 0.02 h
- total protein half-life in vivo [4]: 3.051 ± 0.0027 h
- total protein half-life in vivo [5]: 6.27 ± 0.87 h
- total protein half-life in vivo [6]: 10.6 ± 1.3 h
- total protein half-life in vivo [7]: 5.03 ± 0.15 h
- total protein half-life in vivo [8]: 8.21 ± 0.97 h
- total protein half-life in vivo [9]: 5.36 ± 0.23 h
- total protein half-life in vivo [10]: 12.5 ± 1.7 h

Sequence: MNITATVLLAFGMSMDAFAASIGKGATLHKPKFSEALRTGLIFGAVETLTPLIGWGMGMLASRFVLEWNHWIAFVLLIFLGGRMIIEGFRGADDEDEEPRRRHGFWLLVTTAIATSLDAMAVGVGLAFLQVNIIATALAIGCATLIMSTLGMMVGRFIGSIIGKKAEILGGLVLIGIGVQILWTHFHG
- total protein half-life in vivo [2]: 5.5 h
- total protein half-life in vivo [10]: 8.23 h

Sequence: MNITPFPTLSPATIDAINVIGQWLAQDDFSGEVPYQADCVILAGNAVMPTIDAACKIARDQQIPLLISGGIGHSTTFLYSAIAQHPHYNTIRTTGRAEATILADIAHQFWHIPHEKIWIEDQSTNCGENARFSIALLNQAVERVHTAIVVQDPTMQRRTMATFRRMTGDNPDAPRWLSYPGFVPQLGNNADSVIFINQLQGLWPVERYLSLLTGELPRLRDDSDGYGPRGRDFIVHVDFPAEVIHAWQTLKHDAVLIEAMESRSLR
- total protein half-life in vivo [11]: 5.66 ± 0.067 h
- total protein half-life in vivo [1]: 4.38 ± 0.065 h
- total protein half-life in vivo [2]: 3.92 ± 0.042 h
- total protein half-life in vivo [12]: 4.66 ± 0.2 h
- total protein half-life in vivo [3]: 3.96 ± 0.27 h
- total protein half-life in vivo [4]: > 4 h
- total protein half-life in vivo [5]: 5.74 ± 0.29 h
- total protein half-life in vivo [6]: 10.9 ± 1.3 h
- total protein half-life in vivo [7]: 4.35 ± 0.28 h
- total protein half-life in vivo [8]: 6.81 ± 1.1 h
- total protein half-life in vivo [9]: 6.023 ± 0.049 h
- total protein half-life in vivo [10]: 11.4 ± 0.21 h

Sequence: MNIVDQQTFRDAMSCMGAAVNIITTDGPAGRAGFTASAVCSVTDTPPTLLVCLNRGASVWPAFNENRTLCVNTLSAGQEPLSNLFGGKTPMEHRFAAARWQTGVTGCPQLEEALVSFDCRISQVVSVGTHDILFCAIEAIHRHTTPYGLVWFDRSYHALMRPAC
- total protein half-life in vivo [11]: 5.375 ± 0.033 h
- total protein half-life in vivo [1]: 0.819 ± 0.077 h
- total protein half-life in vivo [2]: 0.419 h
- total protein half-life in vivo [12]: 0.406 h
- total protein half-life in vivo [3]: 0.684 ± 0.19 h
- total protein half-life in vivo [7]: 0.452 h
- total protein half-life in vivo [8]: 1.16 h

Sequence: MNKAIKVSLYISFVLIICALSKNIMMLNTSDFGRAIKPLIEDIPAFTYDLPLLYKLKGHIDSIDSYEYISSYSYILYTYVLFISIFTEYLDARVLSLFLKVIYIYSLYAIFTSYIKTERYVTLFTFFILAFLMCSSSTLSMFASFYQEQIVIIFLPFLVYSLTCKNNKSMLLLFFSLLIISTAKNQFILTPLIVYSYYIFFDRHKLIIKSVICVVCLLASIFAISYSKGVVELNKYHATYFGSYLYMKNNGYKMPSYVDDKCVGLDAWGNKFDISFGATPTEVGTECFESHKDETFSNALFLLVSKPSTIFKLPFDDGVMSQYKENYFHVYKKLHVIYGESNILTTITNIKDNIFKNIRFISLLLFFIASIFIRNNKIKASLFVVSLFGISQFYVSFFGEGYRDLSKHLFGMYFSFDLCLYITVVFLIYKIIQRNQDNSDVKH
- total protein half-life in vivo [11]: 5.64 h
- total protein half-life in vivo [1]: 6.29 ± 1.9 h
- total protein half-life in vivo [2]: 5.24 ± 0.26 h
- total protein half-life in vivo [12]: 4.87 ± 0.47 h
- total protein half-life in vivo [3]: 4.88 ± 0.4 h
- total protein half-life in vivo [5]: 6.387 ± 0.036 h
- total protein half-life in vivo [6]: 12 h
- total protein half-life in vivo [7]: 5.59 ± 0.57 h
- total protein half-life in vivo [8]: 9.92 ± 2.3 h
- total protein half-life in vivo [9]: 5.62 ± 0.53 h
- total protein half-life in vivo [10]: 10.2 ± 1.1 h

Sequence: MNKDEAGGNWKQFKGKVKEQWGKLTDDDMTIIEGKRDQLVGKIQERYGYQKDQAEKEVVDWETRNEYRW
- total protein half-life in vivo [11]: 6.99 ± 1.3 h
- total protein half-life in vivo [1]: 4.33 ± 0.086 h
- total protein half-life in vivo [2]: 4.42 h
- total protein half-life in vivo [12]: 6.177 ± 0.038 h
- total protein half-life in vivo [3]: 3.64 ± 0.25 h
- total protein half-life in vivo [6]: 11 ± 3.5 h
- total protein half-life in vivo [7]: 3.59 ± 0.14 h
- total protein half-life in vivo [8]: 6.53 ± 1.5 h
- total protein half-life in vivo [9]: 3.72 ± 0.58 h
- total protein half-life in vivo [10]: 6.92 ± 0.27 h
